Source: paper PMC7987032 (medRxiv, 2021)

Target: SARS-CoV-2 RBD (SARS-CoV-2 (Wuhan-Hu-1), UniProt P0DTC2)
Assay: BLI

B1: CV2-75 (antibody, V domains shown)
VH: QVQLQESGPGLVKPSETLSLTCTVSGGSISSYYWSWIRQPPGKGLEWIGYVYYSGSTNYNPSLKSRVTISVDTSKNEFSLKLSSVTAADTAVYYCASSQRPDGNLYYFDYWGQGTLVTVSS
VL: SYVLTQPPSVSVAPGQTARITCGGNNIGSKTVHWYQQKPGQAPVLVVYDDSDRPSGIPERFSGSNSGNTATLTISRVEAGDEADYYCQVWDSSSDHYVFGTGTKVTVL
B1: binds.
